PMC10266979

Key:
[1] = biological target: neuraminidase (N1) of influenza A virus A/Hawaii/66/2019 (H1N1) (influenza A virus A/Hawaii/66/2019 (H1N1))
[2] = biological target: neuraminidase (N1) of influenza A virus A/Idaho/07/2018 (H1N1) (influenza A virus A/Idaho/07/2018 (H1N1))
[3] = biological target: neuraminidase (N1) of influenza A virus A/Illinois/45/2019 (H1N1) (influenza A virus A/Illinois/45/2019 (H1N1))
[4] = biological target: neuraminidase (N1) of influenza A virus A/Michigan/45/2015 (H1N1) (influenza A virus A/Michigan/45/2015 (H1N1))
[5] = biological target: neuraminidase (N1) of influenza A virus A/Puerto Rico/1934 (H1N1) (influenza A virus A/Puerto Rico/8/34 (H1N1)) (UniProt P03468)
[6] = biological target: neuraminidase (N1) of influenza A virus A/Victoria/2570/2019 (H1N1) (influenza A virus A/Victoria/2570/2019 (H1N1))
[7] = biological target: neuraminidase (N2) of influenza A virus A/Cambodia/E0826360/2020 (H3N2) (influenza A virus A/Cambodia/E0826360/2020 (H3N2))
[8] = biological target: neuraminidase (N2) of influenza A virus A/Darwin/6/2021 (H3N2) (influenza A virus A/Darwin/6/2021 (H3N2))
[9] = biological target: neuraminidase (N2) of influenza A virus A/HongKong/4801/2014 (H3N2) (influenza A virus A/HongKong/4801/2014 (H3N2))
[10] = biological target: neuraminidase (N2) of influenza A virus A/Kansas/14/2017 (H3N2) (influenza A virus A/Kansas/14/2017 (H3N2))
[11] = biological target: neuraminidase (N2) of influenza A virus A/Michigan/173/2020 (H3N2) (influenza A virus A/Michigan/173/2020 (H3N2))
[12] = biological target: neuraminidase (N2) of influenza A virus A/SouthAustralia/34/2019 (H3N2) (influenza A virus A/SouthAustralia/34/2019 (H3N2))
[13] = biological target: neuraminidase (N2) of influenza A virus A/Tasmania/503/2020 (H3N2) (influenza A virus A/Tasmania/503/2020 (H3N2))
[14] = biological target: neuraminidase (N2) of influenza A virus A/Victoria/361/2011 (H3N2) (influenza A virus A/Victoria/361/2011 (H3N2))
[15] = biological target: neuraminidase of influenza B virus B/Brisbane/35/2018 (Victoria) (influenza B virus B/Brisbane/35/2018 (Victoria))
[16] = biological target: neuraminidase of influenza B virus B/Brisbane/60/2008 (Victoria) (influenza B virus B/Brisbane/60/2008 (Victoria))
[17] = biological target: neuraminidase of influenza B virus B/Colorado/6/2017 (Victoria) (influenza B virus B/Colorado/6/2017 (Victoria))
[18] = biological target: neuraminidase of influenza B virus B/Laos/0080/2016 (Victoria) (influenza B virus B/Laos/0080/2016 (Victoria))
[19] = biological target: neuraminidase of influenza B virus B/Lee/1940 (Ancestral) (influenza B virus B/Lee/1940 (Ancestral)) (UniProt P03474)
[20] = biological target: neuraminidase of influenza B virus B/Phuket/3073/2013 (Yamagata) (influenza B virus B/Phuket/3073/2013 (Yamagata))
[21] = biological target: neuraminidase of influenza B virus B/Texas/6/2011 (Yamagata) (influenza B virus B/Texas/6/2011 (Yamagata))
[22] = biological target: neuraminidase of influenza B virus B/Utah/9/2014 (Yamagata) (influenza B virus B/Utah/9/2014 (Yamagata))
[23] = biological target: neuraminidase of influenza B virus B/Washington/02/2019 (Victoria) (influenza B virus B/Washington/02/2019 (Victoria))
[24] = biological target: recombinant N2 NA A/Hong Kong/2671/2019 (N245 glycan) (influenza A virus H3N2 A/Hong Kong/2671/2019)
[25] = biological target: recombinant N2 NA A/Hong Kong/2671/2019 (N245 glycan) (influenza A virus H3N2 A/Hong Kong/2671/2019); experiment: SPR

Sequence of UniProt P03474 (P03474 whole entry): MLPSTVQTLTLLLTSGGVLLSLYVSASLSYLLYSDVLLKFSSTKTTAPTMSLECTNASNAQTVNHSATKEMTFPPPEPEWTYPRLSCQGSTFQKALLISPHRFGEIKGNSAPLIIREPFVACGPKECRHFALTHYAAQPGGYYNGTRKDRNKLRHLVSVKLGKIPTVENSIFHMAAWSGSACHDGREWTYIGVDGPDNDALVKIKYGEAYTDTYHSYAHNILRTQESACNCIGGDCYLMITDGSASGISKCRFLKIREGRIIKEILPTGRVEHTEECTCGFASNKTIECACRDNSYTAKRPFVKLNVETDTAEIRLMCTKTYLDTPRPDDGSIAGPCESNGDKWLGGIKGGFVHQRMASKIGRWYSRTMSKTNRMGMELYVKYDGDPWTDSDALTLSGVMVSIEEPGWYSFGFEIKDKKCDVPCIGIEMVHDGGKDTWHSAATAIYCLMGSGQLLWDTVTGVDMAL

Substance | In vitro neutralization IC50; virus A/Hawaii/66/2019 (H1N1); mAb as IgG [1] | In vitro neutralization IC50; virus A/Idaho/07/2018 (H1N1); mAb as IgG [2] | In vitro neutralization IC50; virus A/Illinois/45/2019 (H1N1); mAb as IgG [3] | In vitro neutralization IC50; virus A/Michigan/45/2015 (H1N1); mAb as IgG [4] | In vitro neutralization IC50; virus A/Puerto Rico/1934 (H1N1); mAb as IgG [5] | In vitro neutralization IC50; virus A/Victoria/2570/2019 (H1N1); mAb as IgG [6] | In vitro neutralization IC50; virus A/Cambodia/E0826360/2020 (H3N2); mAb as IgG [7] | In vitro neutralization IC50; virus A/Darwin/6/2021 (H3N2); mAb as IgG [8] | In vitro neutralization IC50; virus A/HongKong/4801/2014 (H3N2); mAb as IgG [9] | In vitro neutralization IC50; virus A/Kansas/14/2017 (H3N2); mAb as IgG [10] | In vitro neutralization IC50; virus A/Michigan/173/2020 (H3N2); mAb as IgG [11] | In vitro neutralization IC50; virus A/SouthAustralia/34/2019 (H3N2); mAb as IgG [12] | In vitro neutralization IC50; virus A/Tasmania/503/2020 (H3N2); mAb as IgG [13] | In vitro neutralization IC50; virus A/Victoria/361/2011 (H3N2); mAb as IgG [14] | In vitro neutralization IC50; virus B/Brisbane/35/2018 (Victoria); mAb as IgG [15] | In vitro neutralization IC50; virus B/Brisbane/60/2008 (Victoria); mAb as IgG [16] | In vitro neutralization IC50; virus B/Colorado/6/2017 (Victoria); mAb as IgG [17] | In vitro neutralization IC50; virus B/Laos/0080/2016 (Victoria); mAb as IgG [18] | In vitro neutralization IC50; virus B/Lee/1940 (Ancestral); mAb as IgG [19] | In vitro neutralization IC50; virus B/Phuket/3073/2013 (Yamagata); mAb as IgG [20] | further results
FNI17 Fab | 0.018 µg/mL | 0.022 µg/mL | 0.035 µg/mL | 0.073 µg/mL | 0.011 µg/mL | 0.036 µg/mL | 24.3 µg/mL | > 50 µg/mL | 0.208 µg/mL | 0.485 µg/mL | 33.1 µg/mL | 2.98 µg/mL | 5.07 µg/mL | 0.175 µg/mL | 0.024 µg/mL | 0.191 µg/mL | 0.042 µg/mL | 0.018 µg/mL | 0.071 µg/mL | 0.117 µg/mL | In vitro neutralization IC50; virus B/Texas/6/2011 (Yamagata); mAb as IgG [21]: 0.062 µg/mL; In vitro neutralization IC50; virus B/Utah/9/2014 (Yamagata); mAb as IgG [22]: 0.392 µg/mL; In vitro neutralization IC50; virus B/Washington/02/2019 (Victoria); mAb as IgG [23]: 0.019 µg/mL; In vitro neutralization IC50; virus A/HongKong/2671/2019 (H3N2); mAb as IgG [24]: 5.07 µg/mL; Kd [25]: 2100 nM
FNI19 Fab | 0.021 µg/mL | 0.043 µg/mL | 0.039 µg/mL | 0.062 µg/mL | 0.012 µg/mL | 0.071 µg/mL | 1.47 µg/mL | 2.79 µg/mL | 0.122 µg/mL | 0.559 µg/mL | 1.77 µg/mL | 1.11 µg/mL | 1.18 µg/mL | 0.091 µg/mL | 0.02 µg/mL | 0.152 µg/mL | 1.17 µg/mL | 0.029 µg/mL | 0.211 µg/mL | 0.222 µg/mL | In vitro neutralization IC50; virus B/Texas/6/2011 (Yamagata); mAb as IgG [21]: 0.229 µg/mL; In vitro neutralization IC50; virus B/Utah/9/2014 (Yamagata); mAb as IgG [22]: 0.391 µg/mL; In vitro neutralization IC50; virus B/Washington/02/2019 (Victoria); mAb as IgG [23]: 0.063 µg/mL; In vitro neutralization IC50; virus A/HongKong/2671/2019 (H3N2); mAb as IgG [24]: 0.19 µg/mL; Kd [25]: 15.1 nM
